This passage reports rounding of PC3 cells after a brief exposure to ephrin A1-Fc and inhibition of U251 cell migration in Boyden chambers by ligand results from article PMC3155284.

The target in assay [1] is EphA2, endogenous (human (endogenous in PC3 and U251)) (UniProt P29317).
The target is the same in assay [2]. This is another data set of the same source.

UniProt P29317, sequence (P29317 24-976): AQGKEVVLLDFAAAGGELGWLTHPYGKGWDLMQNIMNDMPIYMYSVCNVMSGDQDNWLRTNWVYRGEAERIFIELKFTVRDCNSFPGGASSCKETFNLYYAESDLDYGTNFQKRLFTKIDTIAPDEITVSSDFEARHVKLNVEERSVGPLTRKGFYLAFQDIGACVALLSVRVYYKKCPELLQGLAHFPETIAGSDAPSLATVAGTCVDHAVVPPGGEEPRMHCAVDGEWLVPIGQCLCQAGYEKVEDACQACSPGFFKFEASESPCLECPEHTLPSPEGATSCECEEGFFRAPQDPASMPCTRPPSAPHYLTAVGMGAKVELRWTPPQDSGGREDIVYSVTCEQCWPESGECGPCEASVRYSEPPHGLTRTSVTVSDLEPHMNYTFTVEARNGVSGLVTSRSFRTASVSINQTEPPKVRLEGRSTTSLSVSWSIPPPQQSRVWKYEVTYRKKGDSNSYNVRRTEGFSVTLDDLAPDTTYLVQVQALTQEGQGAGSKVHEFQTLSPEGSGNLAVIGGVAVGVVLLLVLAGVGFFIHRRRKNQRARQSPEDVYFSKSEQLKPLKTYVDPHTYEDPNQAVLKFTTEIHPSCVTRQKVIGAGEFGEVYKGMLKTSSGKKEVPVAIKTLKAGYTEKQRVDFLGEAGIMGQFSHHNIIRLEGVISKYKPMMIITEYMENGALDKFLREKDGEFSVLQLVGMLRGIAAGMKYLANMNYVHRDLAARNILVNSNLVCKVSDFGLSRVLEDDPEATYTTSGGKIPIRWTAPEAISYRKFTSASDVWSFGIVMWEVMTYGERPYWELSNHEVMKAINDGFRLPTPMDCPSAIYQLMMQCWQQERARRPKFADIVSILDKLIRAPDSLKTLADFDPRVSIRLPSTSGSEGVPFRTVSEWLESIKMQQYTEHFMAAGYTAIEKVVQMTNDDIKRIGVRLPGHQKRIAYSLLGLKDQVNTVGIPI

“ephrin A1-Fc (from UniProt P20827 19-182) (Fc fusion)”: the rounding of PC3 cells after a brief exposure to ephrin A1-Fc in assay [1] turned out to be 90%. Further, the inhibition of U251 cell migration in Boyden chambers by ligand in assay [2] was determined as 50%.
